From article PMC10439950 (2023)

B1: extracellular domain of cynomolgus CD98hc (domain or fragment)
chain: ELPAQKWWHTGALYRIGDLQAFQGHGSGNLAGLKGRLDYLSSLKVKGLVLGPLHKNQKDDVAQTDLLQIDPNFGSKEDFDNLLQSAKKKSIRVILDLTPNYRGENLWFSTQVDSVATKVKDALEFWLQAGVDGFQVRDIENLKDASSFLAEWENITKGFSEDRLLIAGTNSSDLQQIVSLLESNKDLLLTSSYLSDSSFTGEHTKSLVTQYLNATGNRWCSWSLSQAGLLTSFLPAQLLRLYQLMLFTLPGTPVFSYGDEIGLKAAALPGQPVEAPVMLWDESSFPDIPGAVSANMTVKGQSEDPGSLLSLFRQLSDQRSKERSLLHGDFHTFSSGPGLFSYIRHWDQNERFLVVLNFGDVGLSAGLQASDLPASASLPTKADLVLSTQPGREEGSPLELERLKLEPHEGLLLRFPYVA

Legend:
Experiment in all cases: SPR
ATV^CD98hc.6.39 = ATV^CD98hc.6.39 (human, UniProt P01857 = IgG part)
TV6.d3 = target: TV6.d3
TV6.d6 = target: TV6.d6
TV6.d12 = target: TV6.d12
TV6.38 = target: TV6.38
ATV^CD98hc.6.29:DNP = ATV^CD98hc.6.29:DNP (human, UniProt P01857 = IgG part)
[1] = target: B1

Kd (ATV^CD98hc.6.39) [nM] | Kd (TV6.d3) [nM] | Kd (TV6.d6) [nM] | Kd (TV6.d12) [nM] | Kd (TV6.38) [nM] | Kd (ATV^CD98hc.6.29:DNP) [nM] | Kd [1] [nM] | Binder
485 | 2500 | 5000 | 6000 | 250 |  |  | B1
 | 275 | 550 | 2100 | 43 | 20 |  | extracellular domain of human CD98hc (domain or fragment) RAPRCRELPAQKWWHTGALYRIGDLQAFQGHGAGNLAGLKGRLDYLSSLKVKGLVLGPIHKNQKDDVAQTDLLQIDPNFGSKEDFDSLLQSAKKKSIRVILDLTPNYRGENSWFSTQVDTVATKVKDALEFWLQAGVDGFQVRDIENLKDASSFLAEWQNITKGFSEDRLLIAGTNSSDLQQILSLLESNKDLLLTSSYLSDSGSTGEHTKSLVTQYLNATGNRWCSWSLSQARLLTSFLPAQLLRLYQLMLFTLPGTPVFSYGDEIGLDAAALPGQPMEAPVMLWDESSFPDIPGAVSANMTVKGQSEDPGSLLSLFRRLSDQRSKERSLLHGDFHAFSAGPGLFSYIRHWDQNERFLVVLNFGDVGLSAGLQASDLPASASLPAKADLLLSTQPGREEGSPLELERLKLEPHEGLLLRFPYAA
 |  |  |  |  |  | 890 | ATV^CD98hc.6.8:DNP (designed binder) DKTHTCPPCPAPELLGGPSVFLFPPKPKDTLMISRTPEVTCVVVDVSHEDPEVKFNWYVDGVEVHNAKTKPREEQYNSTYRVVSVLTVLHQDWLNGKEYKCKVSNKALPAPIEKTISKAKGQPREPQVYTLPPSRDELTKNQVSLTCLVKGFYPSDIAVLWNSRFVLENNYKTTPPVLDSDGSFFLYSKLTVDKSRWQQGEIFACNVYHEALHNHYTFKNLALSPGK
 |  |  |  |  |  | 2100 | TV6.6 as the ATV^CD98hc:DNP clone (designed binder) DKTHTCPPCPAPELLGGPSVFLFPPKPKDTLMISRTPEVTCVVVDVSHEDPEVKFNWYVDGVEVHNAKTKPREEQYNSTYRVVSVLTVLHQDWLNGKEYKCKVSNKALPAPIEKTISKAKGQPREPQVYTLPPSRDELTKNQVSLTCLVKGFYPSDIAVLWNSRFVLENNYKTTPPVLDSDGSFFLYSKLTVDKSRWQQGNIFACNVYHEALHNHYTFKNLALSPGK
